Paper PMC12822431, “A Pan‐TE Map Reveals the Important Role of Transposable Elements in Gene Expression and Phenotypic Diversity in 2,311 Rapeseed Accessions”

Biological target: T1, BnaA01G0374400ZS (MYB TF, ortholog of AT3G11280) (Brassica napus (ZS11), UniProt A0A078HEX6 1-259)
T1 sequence: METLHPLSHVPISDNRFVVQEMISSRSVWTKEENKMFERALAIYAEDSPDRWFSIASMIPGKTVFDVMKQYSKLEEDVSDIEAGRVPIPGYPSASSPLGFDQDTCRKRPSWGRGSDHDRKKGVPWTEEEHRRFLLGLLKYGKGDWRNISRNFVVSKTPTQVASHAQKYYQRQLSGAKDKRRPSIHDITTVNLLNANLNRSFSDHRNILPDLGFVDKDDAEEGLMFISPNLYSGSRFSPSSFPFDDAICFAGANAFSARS
Test: EMSA; Beyotime GS009 EMSA kit, room temperature, 20 min, 5% native polyacrylamide gel, chemiluminescent detection; buffer, salt and pH not stated
Conditions: protein: recombinant; tags: His; label: biotin; blunt

B1: M2 (M1 with all C nucleotides mutated) (dsDNA)
DNA 1: TTTTTTTATTTATATTAAATTTATT
DNA 2: AATAAATTTAATATAAATAAAAAAA
**Q.** Does B1 bind?
**A.** Result: no binding
